Source: the supplement of paper PMC10567573

B1: VTI1B (parent)
chain: ANETLAEMEEELRYAPLSFRNPMM

Variants of: B1
Experiment: protein stability index of a GFP-peptide fusion (GPS, HEK-293T) (PSI 1-6); higher = more stable
Conditions: c terminus: a fixed tail appended
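Further: lentivirally expressed fusions sorted by FACS into six bins by GFP to DsRed ratio, PSI derived from sequencing read proportions per bin multiplied by bin number.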

**Q.** With ANETLAEMEHELRYAPLSFRNPMM [E10H] as the variant, how does the protein stability index read?
**A.** 3.06

**Q.** Which protein stability index does the source give for ANETLAEMEIELRYAPLSFRNPMM [E10I] here?
**A.** 2.05

**Q.** With ANETLAEMEKELRYAPLSFRNPMM [E10K] as the variant, how does the protein stability index read?
**A.** 2.73

**Q.** With ANETLAEMELELRYAPLSFRNPMM [E10L] as the variant, how does the protein stability index read?
**A.** 2.05

**Q.** For ANETLAEMEMELRYAPLSFRNPMM [E10M], which protein stability index is on record?
**A.** 1.87

**Q.** Which protein stability index does the source give for ANETLAEMENELRYAPLSFRNPMM [E10N] here?
**A.** 2.55

**Q.** Which protein stability index does the source give for ANETLAEMEPELRYAPLSFRNPMM [E10P] here?
**A.** 2.73

**Q.** Which protein stability index does the source give for ANETLAEMEQELRYAPLSFRNPMM [E10Q] here?
**A.** 3.3

**Q.** With ANETLAEMERELRYAPLSFRNPMM [E10R] as the variant, how does the protein stability index read?
**A.** 1.17

**Q.** For ANETLAEMESELRYAPLSFRNPMM [E10S], which protein stability index is on record?
**A.** 2.56

**Q.** For ANETLAEMETELRYAPLSFRNPMM [E10T], which protein stability index is on record?
**A.** 3.02

**Q.** For ANETLAEMEVELRYAPLSFRNPMM [E10V], which protein stability index is on record?
**A.** 1.82

**Q.** Which protein stability index does the source give for ANETLAEMEWELRYAPLSFRNPMM [E10W] here?
**A.** 1.96

**Q.** For ANETLAEMEYELRYAPLSFRNPMM [E10Y], which protein stability index is on record?
**A.** 1.69

**Q.** For ANETLAEMEEALRYAPLSFRNPMM [E11A], which protein stability index is on record?
**A.** 2

**Q.** Which protein stability index does the source give for ANETLAEMEECLRYAPLSFRNPMM [E11C] here?
**A.** 2.22

**Q.** For ANETLAEMEEDLRYAPLSFRNPMM [E11D], which protein stability index is on record?
**A.** 2.13

**Q.** For ANETLAEMEEFLRYAPLSFRNPMM [E11F], which protein stability index is on record?
**A.** 1.66

**Q.** For ANETLAEMEEHLRYAPLSFRNPMM [E11H], which protein stability index is on record?
**A.** 2.89

**Q.** For ANETLAEMEEILRYAPLSFRNPMM [E11I], which protein stability index is on record?
**A.** 2.69

**Q.** Which protein stability index does the source give for ANETLAEMEEKLRYAPLSFRNPMM [E11K] here?
**A.** 3.41

**Q.** With ANETLAEMEELLRYAPLSFRNPMM [E11L] as the variant, how does the protein stability index read?
**A.** 2.29

**Q.** Which protein stability index does the source give for ANETLAEMEEMLRYAPLSFRNPMM [E11M] here?
**A.** 2.45

**Q.** For ANETLAEMEENLRYAPLSFRNPMM [E11N], which protein stability index is on record?
**A.** 2.81

**Q.** For ANETLAEMEEPLRYAPLSFRNPMM [E11P], which protein stability index is on record?
**A.** 2.17

**Q.** With ANETLAEMEEQLRYAPLSFRNPMM [E11Q] as the variant, how does the protein stability index read?
**A.** 1.95

**Q.** For ANETLAEMEERLRYAPLSFRNPMM [E11R], which protein stability index is on record?
**A.** 2.31

**Q.** With ANETLAEMEESLRYAPLSFRNPMM [E11S] as the variant, how does the protein stability index read?
**A.** 3.02

**Q.** With ANETLAEMEETLRYAPLSFRNPMM [E11T] as the variant, how does the protein stability index read?
**A.** 3.25

**Q.** With ANETLAEMEEVLRYAPLSFRNPMM [E11V] as the variant, how does the protein stability index read?
**A.** 1.65

**Q.** For ANETLAEMEEWLRYAPLSFRNPMM [E11W], which protein stability index is on record?
**A.** 1.55

**Q.** For ANETLAEMEEYLRYAPLSFRNPMM [E11Y], which protein stability index is on record?
**A.** 2.51

**Q.** For ANETLAEMEEEARYAPLSFRNPMM [L12A], which protein stability index is on record?
**A.** 3.14

**Q.** With ANETLAEMEEECRYAPLSFRNPMM [L12C] as the variant, how does the protein stability index read?
**A.** 4.37

**Q.** With ANETLAEMEEEDRYAPLSFRNPMM [L12D] as the variant, how does the protein stability index read?
**A.** 4.49

**Q.** For ANETLAEMEEEERYAPLSFRNPMM [L12E], which protein stability index is on record?
**A.** 3.65

**Q.** Which protein stability index does the source give for ANETLAEMEEEFRYAPLSFRNPMM [L12F] here?
**A.** 3.14

**Q.** For ANETLAEMEEEGRYAPLSFRNPMM [L12G], which protein stability index is on record?
**A.** 2.62

**Q.** With ANETLAEMEEEHRYAPLSFRNPMM [L12H] as the variant, how does the protein stability index read?
**A.** 3.79

**Q.** Which protein stability index does the source give for ANETLAEMEEEIRYAPLSFRNPMM [L12I] here?
**A.** 2.99

**Q.** For ANETLAEMEEEKRYAPLSFRNPMM [L12K], which protein stability index is on record?
**A.** 3.27

**Q.** With ANETLAEMEEEMRYAPLSFRNPMM [L12M] as the variant, how does the protein stability index read?
**A.** 2.28

**Q.** For ANETLAEMEEENRYAPLSFRNPMM [L12N], which protein stability index is on record?
**A.** 4.82

**Q.** For ANETLAEMEEEPRYAPLSFRNPMM [L12P], which protein stability index is on record?
**A.** 2.95

**Q.** With ANETLAEMEEEQRYAPLSFRNPMM [L12Q] as the variant, how does the protein stability index read?
**A.** 3.33

**Q.** With ANETLAEMEEERRYAPLSFRNPMM [L12R] as the variant, how does the protein stability index read?
**A.** 2.59

**Q.** For ANETLAEMEEESRYAPLSFRNPMM [L12S], which protein stability index is on record?
**A.** 4.33

**Q.** Which protein stability index does the source give for ANETLAEMEEETRYAPLSFRNPMM [L12T] here?
**A.** 3.9

**Q.** For ANETLAEMEEEVRYAPLSFRNPMM [L12V], which protein stability index is on record?
**A.** 1.83

**Q.** Which protein stability index does the source give for ANETLAEMEEEWRYAPLSFRNPMM [L12W] here?
**A.** 2.19

**Q.** For ANETLAEMEEEYRYAPLSFRNPMM [L12Y], which protein stability index is on record?
**A.** 4.21

**Q.** For ANETLAEMEEELAYAPLSFRNPMM [R13A], which protein stability index is on record?
**A.** 2.04

**Q.** For ANETLAEMEEELCYAPLSFRNPMM [R13C], which protein stability index is on record?
**A.** 2.77

**Q.** Which protein stability index does the source give for ANETLAEMEEELDYAPLSFRNPMM [R13D] here?
**A.** 3.02

**Q.** For ANETLAEMEEELEYAPLSFRNPMM [R13E], which protein stability index is on record?
**A.** 2.11

**Q.** Which protein stability index does the source give for ANETLAEMEEELFYAPLSFRNPMM [R13F] here?
**A.** 2.01

**Q.** For ANETLAEMEEELGYAPLSFRNPMM [R13G], which protein stability index is on record?
**A.** 1.67

**Q.** Which protein stability index does the source give for ANETLAEMEEELHYAPLSFRNPMM [R13H] here?
**A.** 1.82

**Q.** Which protein stability index does the source give for ANETLAEMEEELKYAPLSFRNPMM [R13K] here?
**A.** 1.46

**Q.** Which protein stability index does the source give for ANETLAEMEEELLYAPLSFRNPMM [R13L] here?
**A.** 1.7

**Q.** With ANETLAEMEEELMYAPLSFRNPMM [R13M] as the variant, how does the protein stability index read?
**A.** 2.29

**Q.** With ANETLAEMEEELNYAPLSFRNPMM [R13N] as the variant, how does the protein stability index read?
**A.** 1.94

**Q.** For ANETLAEMEEELPYAPLSFRNPMM [R13P], which protein stability index is on record?
**A.** 2.75

**Q.** With ANETLAEMEEELQYAPLSFRNPMM [R13Q] as the variant, how does the protein stability index read?
**A.** 2.37

**Q.** With ANETLAEMEEELSYAPLSFRNPMM [R13S] as the variant, how does the protein stability index read?
**A.** 2.25

**Q.** For ANETLAEMEEELTYAPLSFRNPMM [R13T], which protein stability index is on record?
**A.** 1.42

**Q.** For ANETLAEMEEELVYAPLSFRNPMM [R13V], which protein stability index is on record?
**A.** 2.64

**Q.** With ANETLAEMEEELWYAPLSFRNPMM [R13W] as the variant, how does the protein stability index read?
**A.** 2.03

**Q.** With ANETLAEMEEELYYAPLSFRNPMM [R13Y] as the variant, how does the protein stability index read?
**A.** 1.64

**Q.** Which protein stability index does the source give for ANETLAEMEEELRAAPLSFRNPMM [Y14A] here?
**A.** 2.48

**Q.** With ANETLAEMEEELRCAPLSFRNPMM [Y14C] as the variant, how does the protein stability index read?
**A.** 1.98

**Q.** With ANETLAEMEEELRDAPLSFRNPMM [Y14D] as the variant, how does the protein stability index read?
**A.** 3.36

**Q.** With ANETLAEMEEELREAPLSFRNPMM [Y14E] as the variant, how does the protein stability index read?
**A.** 3.66

**Q.** For ANETLAEMEEELRFAPLSFRNPMM [Y14F], which protein stability index is on record?
**A.** 2.06

**Q.** With ANETLAEMEEELRGAPLSFRNPMM [Y14G] as the variant, how does the protein stability index read?
**A.** 2.11

**Q.** With ANETLAEMEEELRHAPLSFRNPMM [Y14H] as the variant, how does the protein stability index read?
**A.** 1.7

**Q.** Which protein stability index does the source give for ANETLAEMEEELRIAPLSFRNPMM [Y14I] here?
**A.** 1.66

**Q.** With ANETLAEMEEELRKAPLSFRNPMM [Y14K] as the variant, how does the protein stability index read?
**A.** 1.93

**Q.** Which protein stability index does the source give for ANETLAEMEEELRLAPLSFRNPMM [Y14L] here?
**A.** 3.08

**Q.** With ANETLAEMEEELRMAPLSFRNPMM [Y14M] as the variant, how does the protein stability index read?
**A.** 1.65

**Q.** For ANETLAEMEEELRNAPLSFRNPMM [Y14N], which protein stability index is on record?
**A.** 2.62

**Q.** For ANETLAEMEEELRPAPLSFRNPMM [Y14P], which protein stability index is on record?
**A.** 2.43

**Q.** With ANETLAEMEEELRQAPLSFRNPMM [Y14Q] as the variant, how does the protein stability index read?
**A.** 1.67

**Q.** With ANETLAEMEEELRRAPLSFRNPMM [Y14R] as the variant, how does the protein stability index read?
**A.** 2.47

**Q.** With ANETLAEMEEELRSAPLSFRNPMM [Y14S] as the variant, how does the protein stability index read?
**A.** 1.94

**Q.** For ANETLAEMEEELRTAPLSFRNPMM [Y14T], which protein stability index is on record?
**A.** 2.53

**Q.** For ANETLAEMEEELRVAPLSFRNPMM [Y14V], which protein stability index is on record?
**A.** 2.09

**Q.** With ANETLAEMEEELRWAPLSFRNPMM [Y14W] as the variant, how does the protein stability index read?
**A.** 1.32

**Q.** With ANETLAEMEEELRYCPLSFRNPMM [A15C] as the variant, how does the protein stability index read?
**A.** 1.64

**Q.** For ANETLAEMEEELRYDPLSFRNPMM [A15D], which protein stability index is on record?
**A.** 3.7

**Q.** With ANETLAEMEEELRYEPLSFRNPMM [A15E] as the variant, how does the protein stability index read?
**A.** 3.56

**Q.** With ANETLAEMEEELRYFPLSFRNPMM [A15F] as the variant, how does the protein stability index read?
**A.** 1.39

**Q.** With ANETLAEMEEELRYGPLSFRNPMM [A15G] as the variant, how does the protein stability index read?
**A.** 3.44

**Q.** For ANETLAEMEEELRYHPLSFRNPMM [A15H], which protein stability index is on record?
**A.** 1.9
